Assay [1] relates to LPS induced mouse proteinuria model. The experiment in a line: LPS induced mouse proteinuria model, protein in urine (prevention and reversal by dynamin gene delivery). The assay is classed as in vivo. Particulars: 2xLPS. On the procedure: Next, it was examined whether gene transfer of dynR725A and dynL356Q, G358V was able to protect from LPS induced changes of podocyte FP and thus proteinuria (FIGS. 6A-B); (Table 2B). […] Whereas the application of wildtype dynamin was unable to protect from LPS induced podocyte FP effacement (data not shown) and proteinuria (0.63 mg/ml after 24 hours, p<0.05 and 1.18 mg/ml after 48 hours, p<0.04); table 2B, the co-administration of R725A together with LPS completely abolished the development of proteinuria after 24 hours (0.20 mg/ml). Podocyte FPs remained normal at this timepoint (FIG. 6B). The decline of R725A expression in podocytes was then associated with the development of proteinuria (1.25 mg/ml, 48 h). At this time point, there was noticeable podocyte FP effacement. The application of the cathepsin L resistant dynamin mutant L356Q, G358V together with LPS conferred a partial protection from proteinuria (0.47 mg/ml, P<0.05). This protection was associated with normal appearing podocyte FP (FIG. 6C). Although this protection was not as strong as the one provided by dynR725A, it was prolonged and was still present even after the second dose of LPS ([…], P<0.04). This observation argues that lower expression levels of dynL356Q, G358V are required to protect from LPS induced FP effacement but the presence of dynR725A has the most powerful protection.
Another set of experiments was carried out to study whether dynR725A and dynL356Q, G358V are also useful once there is already established podocyte damage and proteinuria (reversal experiments), (FIGS. 6C, D); (Table 2C). First LPS was injected in mice at 0 and 24 hours and the course of urinary protein loss was documented. On the peak phase of proteinuria at 48 hours after the first LPS injection, either delivery solution (control), dynR725A or dynL356Q, G358V dynamin mutants were transferred and the morphology of podocyte FP was analyzed and the degree of proteinuria was determined 10 hours later when there was strong expression of the transferred gene in podocytes. […] A dramatic reformation of podocyte FPs was also observed (FIG. 6C). The same observation was true for L356Q, G358V (FIG. 6D) which was able to reduce proteinuria from 1.20 mg/ml to 0.71 mg/ml). From the in vitro data it was determined that R725A starts to self assemble into higher order structures in the LPS setting which render dynamin assembly domain protected from cathepsin L cleavage. […] In addition, dominant activating dynR725A proves useful because despite causing podocyte damage in wildtype mice, it can resist cathepsin L cleavage by self assembly in the LPS setting and have strong activity by impairment in its GTP hydrolysis.
If dynamin is a target of CatL, then dynL356Q and dynR725A, which are resistant to CatL cleavage, might protect kidneys from LPS. In control mice, two injections of LPS led to FP effacement (FIG. 21C) and a large increase in proteinuria (FIG. 21E, Con).
Next it was examined whether dynL356Q and dynR725A can reverse already established proteinuria. LPS was injected into mice at 0 and 24 hours. At the peak of proteinuria at 48 hours, mice were injected with dynWT, dynL356Q, or dynR725A, and the degree of proteinuria was analyzed 12 hours post injection. […] The rescue could be achieved with both podocin and CMV-driven protein expression.
All animal studies were approved by the MGH Subcommittee for Research Animal Care. C57BL6 mice were obtained from Jackson Laboratory (Bar Harbor, Me.). CatL−/− mice are in a pure C57BL6 background (Nakagawa et al., Science 280, 450-453 (1998)). LPS induced mouse proteinuria model was utilized as previously described (Reiser et al., J Clin Invest 113, 1390-1397 (2004)). Rat PAN nephrosis model was induced by a single intravenous injection of PAN (180 mg/kg body wt; Sigma-Aldrich, St. Louis, Mo.) (Kim et al., Am J Physiol Renal Physiol 286, F922-935 (2004)). […]

Another assay has as its system mice. The experiment in a line: Protein in urine after in vivo gene delivery of dynamin mutants into healthy mice (Bradford). The arrangement: species or system mouse. Particulars: Table 5 Basic Phenotype, podocin-driven vectors. On the procedure:
Next, the level of urinary protein loss following gene delivery of dynamin mutants was examined (Table 2). […] The expression of K44A was associated with severe proteinuria (1.18 mg/ml) at peak gene expression time of 10 hours post injection. The reduction in gene expression was paralleled by a reduction in proteinuria (0.77 mg/ml). Gene transfer of dynR725A caused an increase in proteinuria (0.58 mg/ml). Although this was not a significant increase, it is probable that it is a consequence of the partial podocyte FP effacement seen after gene transfer of dynR725A, and due to increase in the stress fibers formation observed in cultured podocytes.
To explore whether functional dynamin is required for the maintenance of FP morphology in healthy kidneys, it was examined whether expression of dominant negative dynK44A disrupts podocyte function. […] In contrast, podocin driven expression of dynK44A, the dynamin mutant that cannot bind GTP, caused FP effacement (FIG. 21B) and proteinuria (1.1±0.26 mg/ml) at the peak of gene expression […] after gene delivery (FIGS. 21D and 25C). […] In other words, tight regulation of the life-time of the GTP-bound form of dynamin appears to be required for normal FP morphology and ultrafiltration.
CatL plasmids encoding short and long CatL (Goulet et al., Biol Chem 387, 1285-1293 (2004)), Dyn1 plasmids (pcDNA-driven) or p2.5 Podocin-driven (Moeller et al., Genesis 35, 39-42 (2003)) were introduced into mice (n>10, each construct) using the TransIT in vivo gene delivery system according to the manufacturer's instruction (Mirus Bio Corporation, Madison, Wis.). 10 and 24 h after gene delivery, proteinuria was assessed by Multistix 8 SG strips (Bayer Corporation, Elkhart, Ind.), and Bradford protein assay (Sigma, Saint Louis, Mo.). From the same urines the protein creatinine ratio was determined with Albuwell M and Creatinine Companion protein creatinine ELISA kits (Exocell Inc., Philadelphia, Pa.).

Residue numbers refer to the chain shown, from its start. Names and notes keep the numbering of the source.

For the molecule “WT (CMV): CMV promoter-driven wild type dyn1 vector, gene delivery”, the “Protein in the urine” value in assay [1] (Table 5 Prevention, t = 0) is 0.28 ± 0.07 mg/mL; in assay [1] (Table 5 Prevention, t = 24 h) it was 0.63 ± 0.12 (1.3.2 × 10^−3) mg/ml; in assay [1] (Table 5 Prevention, t = 48 h), 1.18 ± 0.23 (7.6 × 10^−5) mg/ml; in assay [1] (Table 5 Reversal, t = 0) it was 0.30 ± 0.11 mg/mL; in assay [1] (Table 5 Reversal, t = 48 h) it was 0.17 ± 0.20 mg/mL; in assay [1] (Table 5 Reversal, t = 58 h) it was 1.10 ± 0.18 mg/mL.

B1: R725A (podo): podocin promoter-driven dynR725A vector, gene delivery (protein, UniProt Q05193 1-864, looked up, variant R725A)
Dynamin-1: MGNRGMEDLIPLVNRLQDAFSAIGQNADLDLPQIAVVGGQSAGKSSVLENFVGRDFLPRGSGIVTRRPLVLQLVNATTEYAEFLHCKGKKFTDFEEVRLEIEAETDRVTGTNKGISPVPINLRVYSPHVLNLTLVDLPGMTKVPVGDQPPDIEFQIRDMLMQFVTKENCLILAVSPANSDLANSDALKVAKEVDPQGQRTIGVITKLDLMDEGTDARDVLENKLLPLRRGYIGVVNRSQKDIDGKKDITAALAAERKFFLSHPSYRHLADRMGTPYLQKVLNQQLTNHIRDTLPGLRNKLQSQLLSIEKEVEEYKNFRPDDPARKTKALLQMVQQFAVDFEKRIEGSGDQIDTYELSGGARINRIFHERFPFELVKMEFDEKELRREISYAIKNIHGIRTGLFTPDMAFETIVKKQVKKIREPCLKCVDMVISELISTVRQCTKKLQQYPRLREEMERIVTTHIREREGRTKEQVMLLIDIELAYMNTNHEDFIGFANAQQRSNQMNKKKTSGNQDEILVIRKGWLTINNIGIMKGGSKEYWFVLTAENLSWYKDDEEKEKKYMLSVDNLKLRDVEKGFMSSKHIFALFNTEQRNVYKDYRQLELACETQEEVDSWKASFLRAGVYPERVGDKEKASETEENGSDSFMHSMDPQLERQVETIRNLVDSYMAIVNKTVRDLMPKTIMHLMINNTKEFIFSELLANLYSCGDQNTLMEESAEQAQRADEMLRMYHALKEALSIIGDINTTTVSTPMPPPVDDSWLQVQSVPAGRRSPTSSPTPQRRAPAVPPARPGSRGPAPGPPPAGSALGGAPPVPSRPGASPDPFGPPPQVPSRPNRAPPGVPSRSGQASPSRPESPRPPFDL
modifications: podocin promoter vector
notes: podocin promoter-driven dynR725A vector, gene delivery
Turning to B1, the “Protein in the urine” value in the assay with mice (t = 0) is 0.29 ± 0.10 mg/mL; with mice (t = 14 h) it was 0.79 ± 0.22 (4.4 × 10^−5) mg/ml; in the assay on mice (t = 24 h) it was 0.45 ± 0.18 (3.6 × 10^−2) mg/ml; in assay [1] (Table 5 Reversal, t = 0), 0.23 ± 0.07 mg/mL; in assay [1] (Table 5 Reversal, t = 48 h) it was 1.26 ± 0.34 mg/mL; in assay [1] (Table 5 Reversal, t = 58 h) it was 0.49 ± 0.23 (1.6 × 10^−4) mg/ml.

B2: K44A (podo): podocin promoter-driven dynK44A vector, gene delivery (protein, UniProt Q05193 1-864, looked up, variant K44A)
Dynamin-1: B1 Dynamin-1 with K44A, A725R
modifications: podocin promoter vector
notes: podocin promoter-driven dynK44A vector, gene delivery
Turning to B2, the “Protein in the urine” value in the assay with mice (t = 0) is 0.24 ± 0.08 mg/mL; with mice (t = 14 h) it was 1.09 ± 0.27 (3.0 × 10^−5) mg/ml; in the assay with mice (t = 24 h), 0.42 ± 0.16 (5.2 × 10^−3) mg/ml.

B3: R725A (CMV): CMV promoter-driven dynR725A vector, gene delivery (protein, UniProt Q05193 1-864, looked up, variant R725A)
Dynamin-1: B1 Dynamin-1
modifications: expressed from CMV vector
notes: CMV promoter-driven dynR725A vector, gene delivery
On to B3, for which the “Protein in the urine” value is 0.17 ± 0.08 mg/mL in assay [1] (Table 5 Prevention, t = 0); 0.20 ± 0.05 mg/mL in assay [1] (Table 5 Prevention, t = 24 h); 1.25 ± 0.29 (5.0 × 10^−6) mg/ml in assay [1] (Table 5 Prevention, t = 48 h); 0.28 ± 0.10 mg/mL in assay [1] (Table 5 Reversal, t = 0); 1.15 ± 0.17 mg/mL in assay [1] (Table 5 Reversal, t = 48 h); 0.38 ± 0.23 (1.8 × 10^−3) mg/ml in assay [1] (Table 5 Reversal, t = 58 h).

B4: WT (podo): podocin promoter-driven wild type dyn1 vector, gene delivery (protein, UniProt Q05193 1-864, looked up)
Dynamin-1: B1 Dynamin-1 with A725R
modifications: podocin promoter vector
notes: podocin promoter-driven wild type dyn1 vector, gene delivery
Take B4: the “Protein in the urine” value in the assay with mice (t = 0) is 0.28 ± 0.06 mg/mL; in the assay on mice (t = 14 h), 0.54 ± 0.13 (4.2 × 10^−3) mg/ml; with mice (t = 24 h) it was 0.46 ± 0.16 (4.6 × 10^−2) mg/ml.

B5: L356Q (podo): podocin promoter-driven dynL356Q vector, gene delivery (protein, UniProt Q05193 1-864, looked up, variant L356Q)
Dynamin-1: B1 Dynamin-1 with L356Q, A725R
modifications: podocin promoter vector
notes: podocin promoter-driven dynL356Q vector, gene delivery
Regarding B5, the “Protein in the urine” value in the assay on mice (t = 0) is 0.24 ± 0.05 mg/mL; with mice (t = 14 h), 0.45 ± 0.12 (2.5 × 10^−3) mg/ml; in the assay on mice (t = 24 h) it was 0.35 ± 0.018 mg/mL; in assay [1] (Table 5 Reversal, t = 0), 0.29 ± 0.05 mg/mL; in assay [1] (Table 5 Reversal, t = 48 h) it was 1.36 ± 0.49 mg/mL; in assay [1] (Table 5 Reversal, t = 58 h), 0.73 ± 0.29 (6.9 × 10^−3) mg/ml.

Source of the values: patent US9144594B2, “Cathepsin L mediated diseases and associated methods and products” (University of Miami, priority 2005, dated 2015).
